In the series the test system is MS2 coat protein. In words: apparent KD of MS2 coat protein; higher = weaker reporter binding. The note with it: Eterna round: R107. The procedure, abridged: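 For every design, apparent KD is the median of normalised binding-curve fits from its clusters. The RNA switches were transcribed on-chip from Illumina sequencing clusters and titrated with SNAP-549-labelled MS2 coat protein (twofold steps, 0.7 or 1.5 nM to 3 µM; 0.8–1.5 h to 10–20 min per step). Titrations used 100 mM Tris-HCl pH 7.5, 80 mM KCl, 4 mM MgCl2, without or with constant ligand.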

The mark [1] stands for this setting: input ligand: theophylline 20 uM.
The mark [2] stands for this setting: input ligand: theophylline 2 mM.
Where [3] appears, read: input ligand: tryptophan 2.4 mM.

Take “GUAAUUAUAAGAAGGAGCGUCGAAAAUGGGUAAACAUGAGGAUCACCCAUGUAAAGGGAACGACAGGUAGGUCGCUUAUGAUUAC [AstromonsSSArgB#22]”: the “apparent KD of MS2 coat protein” value amounted to 76.5 nM (input ligand: arginine 13.2 mM); 185 nM (input ligand: none); 164 nM under setting [1]; 274 nM under setting [2]; 202 nM under setting [3].
Take “GUAAUUAUAAGAAGGAGCGUCGAAAAUGGGUAAACAUGAGGAUCACCCAUGUAAAGGGAACGACAGGUAGGUCGCUUAUGGUUAC [AstromonsSSArgB#24]”: the “apparent KD of MS2 coat protein” value was found to be 99.2 nM (input ligand: arginine 13.2 mM); 200 nM (input ligand: none); 245 nM under setting [1]; 305 nM under setting [2]; 214 nM under setting [3].
For “GUACAUGAGGAUCACCCAUGUAUAGUUGAAGGAGCGACCGGUGGGUCAGGUAGGUCGCAGCACAUGGCGUCAACCCGUGUAUGCC [#1 Exclusion - Arginine A Attempt #26 (Inspired by Pi)]”, the “apparent KD of MS2 coat protein” value (input ligand: arginine 13.2 mM) was 18.1 nM; the “apparent KD of MS2 coat protein” value (input ligand: none) stood at 17.6 nM; the “apparent KD of MS2 coat protein” value under setting [1] amounted to 26.7 nM; the “apparent KD of MS2 coat protein” value under setting [2] amounted to 22.1 nM; the “apparent KD of MS2 coat protein” value under setting [3] worked out at 17.2 nM.
With “GUAUUAACAAAAGUUGAUACAGUGGGUGAACGAGGACCGGUACGGCCGCCACUCGGACAUGAGGAUCACCCAUGUCCAUGUGAAA [AstrosExyTryA#12]”, the “apparent KD of MS2 coat protein” value came to 15.9 nM (input ligand: arginine 13.2 mM), 19.2 nM under setting [1] and 17.2 nM under setting [2].
In the case of “GUCCACAGCCGAAGGAGCGCUAGAAGAUGACAUGAGGAUCACCCAUGUGUGUGGUGUGGCUAGCAGGUAGGUCGCGGAGUGGAUU [Exclusion - Arginine B (Freestyle 15)]”, the “apparent KD of MS2 coat protein” value reads like this: (input ligand: arginine 13.2 mM) 39.7 nM; (input ligand: none) 30.5 nM; under setting [1], 59.3 nM; under setting [2], 39 nM; under setting [3], 26.1 nM.
For “GUCCGCAGCCGAAGGAGCGCUAGAAGGUGACAUGAGGAUCACCCAUGUGUGUGAUGUGGCUAGCAGGUAGGUCGCGGAGCGGAUU [Exclusion - Arginine B (Freestyle 18)]” the same measures were 85.2 nM, 59.2 nM, 110 nM, 76.7 nM and 61.9 nM.
As for “GUCCUCAGCCGAAGGAGCGCUAGAAGGUGACAUGAGGAUCACCCAUGUGUGUGAUGUGGCUAGCAGGUAGGUCGCGGAGAGGAUU [Exclusion - Arginine B (Freestyle 17)]”, the “apparent KD of MS2 coat protein” value (input ligand: arginine 13.2 mM) is 107 nM; the “apparent KD of MS2 coat protein” value (input ligand: none) came to 98.6 nM; the “apparent KD of MS2 coat protein” value under setting [1] is 157 nM; the “apparent KD of MS2 coat protein” value under setting [2] was 127 nM; the “apparent KD of MS2 coat protein” value under setting [3] is 78.8 nM.
In the case of “GUCUUGGAAUCGGCCGCCACUACAUGAGGAUCACCCAUGUGGACAAAUAGGGUUUUUAAGCUCGGUAGGACCGGGAUUCGGACAU [Mamaon]”, the “apparent KD of MS2 coat protein” value was 12.3 nM (input ligand: arginine 13.2 mM); 14.3 nM (input ligand: none); 15.9 nM under setting [1]; 18 nM under setting [2]; 66 nM under setting [3].
For the sequence “GUGUGGCGCUCGGCCGCCACUCAGACAUGAGGAUCACCCAUGUAGAACAUGAGGAUCACCCAUGUGAGGACCGGGAGACACACGA [Exclusion Tryptophan B GF11]”, the “apparent KD of MS2 coat protein” value runs as follows: (input ligand: arginine 13.2 mM) 164 nM; (input ligand: none) 288 nM; under setting [1], 288 nM; under setting [2], 404 nM; under setting [3], 308 nM.
As for “GUGUUAUGCUCGGCCGCCACUCUGACAUGAGGAUCACCCAUGUUGUACAUGAGGAUCACCCAUGUGAGGACCGGGAGAAACACGA [Exclusion Tryptophan B GF9]”, the “apparent KD of MS2 coat protein” value came out at 191 nM (input ligand: arginine 13.2 mM); 193 nM (input ligand: none); 191 nM under setting [1]; 209 nM under setting [2]; 274 nM under setting [3].
With “UAAAAUAAAAGGGUGAAGGUAUAAACAGAUACCAGCCAGAUAACUGGCCCUUGGCAGCUGAAUGACAUGAGGAUCACCCAUGUCU [TheoAS 21 #OpenEnded #Ms2Late]”, the “apparent KD of MS2 coat protein” value is 13.1 nM (input ligand: arginine 13.2 mM), 17.7 nM under setting [1] and 14.5 nM under setting [3].
Consider “UAACAUGAGGAUCACCCAUGUAUACUAAGUCGAGGACCGGUACGGCCGCCACUCGAACUUCAAGAAUAGGCGGUAAAUGUAAGUA [JR_ExcTryptoA_Sub020]”, for which the “apparent KD of MS2 coat protein” value was determined as 11.8 nM (input ligand: arginine 13.2 mM), 16.5 nM under setting [1] and 14 nM under setting [2].
As for “UACAUGAGGAUCACCCAUGUAUGAAUAGAUACCAGAUAAAAUAAGGUCCCUUGGCAGCUAGUGAAUCGAGGGUGGGUAUCAUGAU [#12 Exclusion-TheophyllineA]”, the “apparent KD of MS2 coat protein” value runs as follows: (input ligand: arginine 13.2 mM) 9.47 nM; under setting [1], 12.7 nM; under setting [3], 9.93 nM.
In the case of “UACAUGAGGAUCACCCAUGUGUAACCAGAAGGAGCGUGCGAAAGCACAGGUAGGUCGCUGGUGGGUUUAGGUUUAAUAGGUGUAU [SSAA NP+V+V2 #4 +-Same Structure]”, the “apparent KD of MS2 coat protein” value (input ligand: arginine 13.2 mM) came to 32.8 nM; the “apparent KD of MS2 coat protein” value (input ligand: none) worked out at 32.3 nM; the “apparent KD of MS2 coat protein” value under setting [1] amounted to 54.1 nM; the “apparent KD of MS2 coat protein” value under setting [2] was found to be 40.6 nM; the “apparent KD of MS2 coat protein” value under setting [3] amounted to 34.6 nM.
With “UACUUGCUGACGGCCGCCACUAGAACAUGAGGAUCACCCAUGUAUCUAGUGGCAAUCCUCAUGACUAGGACCGGGUCAGCAAGAU [(Trp1)-(Ms2)-(T)'-(M)'-(Trp2)_Design1]”, the “apparent KD of MS2 coat protein” value (input ligand: arginine 13.2 mM) is 8.26 nM, the “apparent KD of MS2 coat protein” value under setting [1] stood at 10.4 nM and the “apparent KD of MS2 coat protein” value under setting [2] is 9.58 nM.
As for “UAGAAACGUACGGCCGCCACUCGGAAUUGGCUCAGACCAUACGUACAUGAGGAUCACCCAUGUUAGAGGACCGGGUAUAAUCUAA [theeternabot_sameState_MS2_Trp_B_46]”, the “apparent KD of MS2 coat protein” value reads like this: (input ligand: arginine 13.2 mM) 18.5 nM; under setting [1], 30.8 nM; under setting [2], 31 nM.

These data come from the supplement of paper PMC9170038.
